{"source": "patent US11452709B2", "about": "“Compositions and methods for preventing and treating radiation-induced bystander effects caused by radiation or radiotherapy” (The Regents of the University of Colorado, priority 2017, dated 2022)", "molecules": {"B1": {"name": "tCPR-4: recombinant truncated CPR-4 lacking its signal peptide (residues 1-15) (protein, UniProt P43508 81-335, looked up)", "Cathepsin B-like cysteine …": "IPATFDARTQWPNCMSINNIRDQSDCGSCWAFAAAEAASDRFCIASNGAVNTLLSAEDVLSCCSNCGYGCEGGYPINAWKYLVKSGFCTGGSYEAQFGCKPYSLAPCGETVGNVTWPSCPDDGYDTPACVNKCTNKNYNVAYTADKHFGSTAYAVGKKVSQIQAEIIAHGPVEAAFTVYEDFYQYKTGVYVHTTGQELGGHAIRILGWGTDNGTPYWLVANSWNVNWGENGYFRIIRGTNECGIEHAVVGGVPKV"}}, "format_in_all_cases": "in vivo, C. elegans", "key": {"[1]": {"system": "germline mitotic zone nuclei", "experiment": "Germ cell proliferation assay (mitotic nuclei)", "settings": "2.8 μM tCPR-4, 48 hours", "protocol": "Growing C. elegans animals in 96-well plates. HB101 bacteria were mixed with 100 μL conditioned medium (0.1 μg/μL) or 100 μL S-Medium containing 2.8 μM of recombinant tCPR-4 proteins (wild-type or mutant) or 0.27 μM recombinant human cathepsin B in a 96-well plate. Approximately 60 L4 larvae were transferred into each well of the plate. After being cultured in liquid media for 48 hours, these animals were scored for the numbers of germ cell corpses and mitotic nuclei. Quantification of mitotic nuclei. L4 animals treated with 2.8 μM of purified tCPR-4 proteins in liquid culture for 48 hours were transferred to NGM plates and allowed to recover for 1 hour at 20° C. They were then dissected to expose their gonads following the protocol described previously. Dissected gonads were fixed and stained with DAPI. The number of germ nuclei and the number of metaphase nuclei in the mitotic zone of each gonad were scored using a Zeiss Nomarski microscope with a DAPI filter."}, "[2]": {"system": "germ cell corpses in ced-1(e1735) animals", "experiment": "Germ cell corpse assay with recombinant proteins in liquid culture", "protocol": "Growing C. elegans animals in 96-well plates. HB101 bacteria were mixed with 100 μL conditioned medium (0.1 μg/μL) or 100 μL S-Medium containing 2.8 μM of recombinant tCPR-4 proteins (wild-type or mutant) or 0.27 μM recombinant human cathepsin B in a 96-well plate. Approximately 60 L4 larvae were transferred into each well of the plate. After being cultured in liquid media for 48 hours, these animals were scored for the numbers of germ cell corpses and mitotic nuclei. Quantification of germ cell corpses. L4 animals were cultured in liquid media in a 96-well plate as described above. After 48 hours, they were transferred to NGM plates and allowed to recover for 1 hour at 20° C. The animals were then anesthetized by 20 mM NaN3, mounted onto 2% agar pad, and scored under Nomarski optics. For transgenic animals expressing CPR-4 in the pharynx, L4 animals were grown on NGM plates for 24 hours at 20° C. before they were scored for germ cell corpses. Only the posterior arms of intact gonads were scored. Blind tests were carried out in all germ cell corpse quantification experiments."}, "N2 animals": {"system": "N2 animals", "experiment": "Embryonic lethality assay in liquid media with purified proteins", "settings": "2.8 μM tCPR-4 proteins or 0.27 μM rhCTSB, 48 hours", "protocol": "Embryonic lethality and larval arrest assays. For embryonic lethality assays caused by direct irradiation, after irradiated with 100 J/m^2 UV or 500 Gy gamma ray, gravid adults were placed on NGM plates to lay eggs for 4 hours at 25° C. and then removed from the plates. For embryonic lethality assays in liquid media, L4 larvae were cultured in conditioned medium or S-Medium containing the purified proteins at 20° C. for 48 hours, transferred to fresh NGM plates from the liquid media, and allowed to lay eggs for 4 hours at 25° C., before the adult animals were removed. For embryonic lethality assays in transgenic animals expressing CPR-4 in the pharynx, transgenic gravid adults at 24 hours post L4 were placed on NGM plates to lay eggs for 4 hours at 25° C. and then removed from the plates."}}}
{"molecule": "B1", "values": [{"measurement": "Germ cell nuclei and metaphase nuclei in the mitotic zone of N2 animals", "setting": "[1]", "value": "more germ cell nuclei and more metaphase nuclei in the mitotic zone"}, {"measurement": "Germ cell death in ced-1(e1735); daf2(e1370) mutant", "setting": "[2]; 2.8 μM tCPR-4, 48 hours", "value": "did not further reduce germ cell death"}, {"measurement": "Germ cell death in ced-1(e1735); pdk-1(sa680) animals", "setting": "[2]; 2.8 μM tCPR-4, 48 hours", "value": "did not reduce germ cell death"}, {"measurement": "Germ cell corpses in ced-1(e1735) animals", "setting": "[2]; 2.8 μM tCPR-4 proteins or 0.27 μM rhCTSB, L4 larvae, 48 hours", "value": "reduced germ cell corpses"}, {"measurement": "Embryonic lethality of treated N2 animals", "setting": "N2 animals", "value": "increased embryonic lethality"}]}
